Experimental findings from the DeepSol protein solubility set are described below.

The nature of this data set: soluble on expression in E. coli; label from the status in PepcDB or PDB records.
As to “MTIGIIGSGALGSGIARILASKGISAIISNSRGPESLASLVRELGGSIKAGTAEEAARADIVFAAVRWVDAEKVLSSLPAWEGRIVIDATNPVEFIDPDSPDANDPTNPLAAYGIKAVDLHGKYSSEIFRQFVPGARVVKAFNHLDANVFSAPEVTGGKRVLFYSGDDAAAKTEVRKIIEDTGFVPVDLGTLDVGGPLASLPFGPLAAQNFIRVLEHHHHHH”, the “soluble on expression in E. coli” value was “soluble”.

On to “GQVQLVESGPGLVAPSQSLSITCTVSGISLSRYNVHWVRQSPGKGLEWLGMIWGGGSIEYNPALKSRLSISKDNSKSQIFLKMNSLQTDDSAMYYCVSYGYGGDRFSYWGQGTLVTVS”, for which the “soluble on expression in E. coli” value is “soluble”.

Take “MGSDKIHHHHHHMENLLEVQQLNKSYKNSEFQLTDITFSVKPGEVVGLIGKNGSGKSTLINTLVGNRHKDNGSLKFFNKEVTENDFKYKEHLGVVFDDLRVPDKLTLQSINKVFTEIYDAWNSDTFFSLIKAFELPTNNQIKTFSRGMRMKAALTIALSHDAKLLILDEATAGMDVSGREHVLEILEDYLGDDRAILISSHISEDIEQLATQLVFMRDGRIILKESKEVLLSQYGIIDQPVEHFNISNEYLIATRRRNDRQISLVNNYQKVPDAQPLKTIDDATKIIMRGEV”: the “soluble on expression in E. coli” value is recorded as “not soluble”.

Regarding “GSMKPYKELERVFTKLYRYGHMLLLADWDSHTMMPCKGSDARGAAMAELQLHMHDTITAPKIRALIEEAEKSVGDLEKLQRANLREMRRAWELENLLPEEFVERKTVLTTKAHQVWKTCREKNDFAGFLPTLKELIALFREEGKLRAGNSGKHPYEALVDIYEPGMTLQRLDEIFGNVRSWLPELLKEVQEKQKALGETVLEPKGPFPVSKQEALCRFFMDVWKFDFDGGRLDVSAHPFCGNSKEDVRITTKYTETEFVTSLLGVIHETGHAKYEQNCGPKGFETQPVCMARSLGVHEGQSLFAEMQIGRSGAFMEFLAPRLVEYFGDQPAFTSSNMKRVIQRVSPGLIRIDADELCYPLHVMLRYEIERDLMDGNIEAEEVPRVWNEKMKSYLGLETLGNDKEGCLQDVHWSGGMFGYFPTYSLGAMVAAQLMSCVRRELGEEVVDDCIRKGDLGKILAKQNEKIWQHGSSLTTDELLRQATGETLNPEHYRRHLERRYRDDRG”, the “soluble on expression in E. coli” value is on record as “soluble”.

Take “MGSDKIHHHHHHVVVMSKVLLNIGCADVDKPGYINVDARKTKVTHLVSNAWDLDCFEENSVHEIYSRHMLEHLNPEYAKLALQKWFYILEPEGKLVVIVPDIEFHARQLLGVSRSSFGDQMEHAFAGFWGWREKERGGSDFDAHQWGYTVATLENEIGAVGFERIERVVEGVDSEPWHLQMTARKPMTSLCCPMDFRGPFP”: the “soluble on expression in E. coli” value is “not soluble”.

Turning to “MLCAVYKSSRKADTYLFVNKRDCFDDVPQALLDMFGVPQLVMVFPIVKRESLGIADINKVRAALEEKGFYLQIPPPQVNLLAEHRENLGIKD”, the “soluble on expression in E. coli” value is listed as “soluble”.

Consider “MPLLGLLPRRAWASLLSQLLRPPCASCTGAVRCQSQVAEAVLTSQLKAHQEKPNFIIKTPKGTRDLSPQHMVVREKILDLVISCFKRHGAKGMDTPAFELKETLTEKYGEDSGLMYDLKDQGGELLSLRYDLTVPFARYLAMNKVKKMKRYHVGKVWRRESPTIVQGRYREFCQCDFDIAGQFDPMIPDAECLKIMCEILSGLQLGDFLIKVNDRRIVDGMFAVCGVPESKFRAICSSIDKLDKMAWKDVRHEMVVKKGLAPEVADRIGDYVQCHGGVSLVEQMFQDPRLSQNKQALEGLGDLKLLFEYLTLFGIADKISFDLSLARGLDYYTGVIYEAVLLQTPTQAGEEPLNVGSVAAGGRYDGLVGMFDPKGHKVPCVGLSIGVERIFYIVEQRMKTKGEKVRTTETQVFVATPQKNFLQERLKLIAELWDSGIKAEMLYKNNPKLLTQLHYCESTGIPLVVIIGEQELKEGVIKIRSVASREEVAIKRENFVAEIQKRLSES”, for which the “soluble on expression in E. coli” value is recorded as “soluble”.

As to “MGSDKIHHHHHHMLQTDNLIPDFINKQITQAVMSLRSGNVVAFPTETVYGLGADISQPQAIQKIFEIKGRPSSHPLIVHFANLSELEFWAENIPATAWILAQHFWPGPLTLILTKSNHIPLSVTGGQETVGLRIPRHPIALKLLEQLGSCKALAAPSANRFGFVSPTIADHVKNAFNDKIEVILDGGPCEVGLESTIVSCIDKDVTILRPGGISVLSIENLLQQKVSVKSQNKIRTPGSLSSHYATATPLEICQSSESLFSRSFDLLQQGIRTAVIIRSIHLIPMLNSDDKFHYILMPNDPVAFGKDLYATLRKLDDANFERILVEAPPDDLEWLAVADRLSRASYSFTSK”, the “soluble on expression in E. coli” value was “not soluble”.

As for “MSLQQPLAYRMRPRTIDEVVGQQHLVGEGKIIRRMVDARMLSSMILYGPPGTGKTSIASAIAGSTNYAFRMLNAATDSKKDLQVVAEEAKMSGTVILLLDEVHRLDKTKQDFLLPHLESGRIILIGATTENPYITINPAIRSRTQIFEVKPLTEQDIQLAVEHALRDKERGLGQQAIQLDEDALLHLSRATNGDLRSALNGLELATLSTPSDKEGRIHLTLSIIEECVQRKALTHDKNGDAHYDVISAFQKSIRGSDVDAALHYLARLVEAGDLASICRRLMVIGYEDIGLGNPAAAARTVNAVLAAEKLGLPEARIPLADVVVDLCLSPKSNSAYMALDAALADIREGKAGDVPDHLRDSHYKGAKSLNRGVGYQYPHHFDQAWVNQQYLPDKLKNAQYYQPKDTGKYEQALGQQYYRIKEWKEGHHHHHH”, the “soluble on expression in E. coli” value is recorded as “soluble”.

In the case of “MGSDKIHHHHHHMLLDHIFICVDENAPEADELVFLGLAEGTPNRHRGQGTANRRFFLPGVMLELLWVADLNELQSVTTRTLGLADRFAARKDGGSPFGFVFKPKNPRIGNSCPFPFRSYHPAYLPETLDMKVADATPRIEPLYVFIDFLPASCSTAQHHPCGIERLTSVHVTFPAQGAPSPVARMIDSLPGMSARVGREHLLELCFDDGKRGVRHDFRNRLPLIIRW”, the “soluble on expression in E. coli” value is on record as “not soluble”.

“MQVFIMRHGDAALDAASDSVRPLTTNGCDESRLMANWLKGQKVEIERVLVSPFLRAEQTLEEVGDCLNLPSSAEVLPELTPCGDVGLVSAYLQALTNEGVASVLVISHLPLVGYLVAELCPGETPPMFTTSAIASVTLDESGKGEFNWQMSPCNLKMAKAI”: the “soluble on expression in E. coli” value is “soluble”.

As to “SNEFFPVDDNNEGTDADMKEDSEGPEPKGLSPPHKKSKAKKPESSKDSSEDESGPEEKQTAEEMEGQSQEADGVNTTPVPSPASEDKAEVHKDEADSAKDDNTVKDSDMTNHSVCDQELPNGQENDSAKSEGKTEAESPSSSMETEDLSPNQEDAAIVEQPEVIPLIDDQEAQEGGEAQGKDAPAVFAESQGSSEAENTSGPDVDMNSQVDGVNEPTESLQEDLQ”, the “soluble on expression in E. coli” value is on record as “not soluble”.

With “MTIKYLTKNDVLAACIGGSVYASGGGGFYEHGLEMGEAAVALSPVVLKTIDEFEEDDLIITQTAIGAPAGTTDWQMLGKDYIRAVELLLEKHPHPEKIKGILTPQNGKSSSTNGWLSASALGLAVVHATGDIRAHPTGKMGNMGVANDTTYETIQAVSGGRRETGRHIELSVQGTAAYTSKILRIASDLSGGFIAAARHPLTASYIKQNAVIGGLSKAIELGYCILEHQNEDGSSIIDAIVKHTHGEILAKGKVVAKDMTYTDEAFDVGKVKIKTESDNVTLHVQNEFMAVDSQALGRVATYPDVITLFRAKDAKALSTDEISIDEEVVVFKISHKHFPLSTGVKDPSVYPEVENVLGIDLYRHAFKLEHHHHHH”, the “soluble on expression in E. coli” value is listed as “soluble”.

Consider “MSLRTIVFDVDDTLYDQQQPFRNAMTKIFPNVATEDMHELYLRFRHHSDETFPKVLANEWSLDFMRFFRMNETLKDLNYPGISQEEGKIFQQVYEEELDNITMHPEVTKLLDTLQEKEIPMGIITNGPTDHQFKKVKQLNIEKWVPSQNIIISQSTGFQKPEKEIFDLACNQFCMEPEHTLYVGDSYDNDIVGARNGGWHSLWFNHRSRELPSCQPASHLAEVTCFTELCPTVEKLFNLEGHHHHHH”, for which the “soluble on expression in E. coli” value is given as “soluble”.

“MSLSITHQPANLTLAQIQQMIGGVMLLSQHSPLHRRYVVAEWLQRILPAFELNQFCYYEDEHGRPIAFCNWAFVSEQIRDELLSGVREISPSDWRSGQQIYIPEMIAPFGHGREVVNDLRRRVFLPWQGQKVCTVRGKVDAQNDRCIRKVQWFSIEGHHHHHH”: the “soluble on expression in E. coli” value was “soluble”.

Consider “MRDEISSRIRRLPAGMSGGRAPDFALAVYGGAFDPPHPGHESVIRRALLCAERVALVPSHRHAFGKRMGDFELRCRWLARLARRIDPRRVYCEPIEAGLMPDRPAVYSIDLLEALAARSGLASARIALLIGADNEAELPRFERAAELCWRFGRLVAEERLPLHSSMIRQRLREGLAVPEAWCLPEVKDELHCYGGERQAV”, for which the “soluble on expression in E. coli” value is reported as “not soluble”.
